Experimental data taken from PMC12149299.
Read-outs that look alike come from different tables or passages of the source.

B1: FD22 (protein)
chain 1: QVQLSQSGGGAVQPGKSLTLSCRAYGFHLFSYVVVWVRQTPQNGLEWVAGAASGGWPQEFMNSVRGRFSISRDDYTVSLQMNALRVDDSGLYFCAQERGLHRLDGAVKFGRWFRAWGQGSQVVVTS
chain 2: QSALTQPASVSGSPGQSITLSCTGADNSVSWYQVVPGRAPKLLIFEVNVRPSEVSDRFSGSKSGDTASLTISRLQIEDESDYYCVTRRGDVTYLFGSGTRVSVL
B2: VRC01 (protein)
chain 1: QVQLVQSGGQMKKPGESMRISCRASGYEFIDCTLNWIRLAPGKRPEWMGWLKPRGGAVNYARPLQGRVTMTRDVYSDTAFLELRSLTVDDTAVYFCTRGKNCDYNWDFEHWGRGTPVIVSS
chain 2: EIVLTQSPGTLSLSPGETAIISCRTSQYGSLAWYQQRPGQAPRLVIYSGSTRAAGIPDRFSGSRWGPDYNLTISNLESGDFGVYYCQQYEFFGQGTKVQVD

Molecular target: HIV-1 gp120 protein from the BaL.01 strain (HIV-1)
Assay: BLI

Binder	Kd (biotin (EZ-Link NHS-LC-Biotin) in the competition ELISA only | biotin (EZ-Link NHS-LC-Biotin) in the competition ELISA only)	Kd
B1	8.88 nM	–
B2	–	25.1 nM
